Results as given in publication PMC4764579, “Structural insights into the mechanism of activation of the TRPV1 channel by a membrane-bound tarantula toxin” (eLife, 2016).

Molecular target: rat TRPV1, full-length channel expressed in HEK293 cells (rat) (UniProt O35433)
Sequence (O35433 whole entry): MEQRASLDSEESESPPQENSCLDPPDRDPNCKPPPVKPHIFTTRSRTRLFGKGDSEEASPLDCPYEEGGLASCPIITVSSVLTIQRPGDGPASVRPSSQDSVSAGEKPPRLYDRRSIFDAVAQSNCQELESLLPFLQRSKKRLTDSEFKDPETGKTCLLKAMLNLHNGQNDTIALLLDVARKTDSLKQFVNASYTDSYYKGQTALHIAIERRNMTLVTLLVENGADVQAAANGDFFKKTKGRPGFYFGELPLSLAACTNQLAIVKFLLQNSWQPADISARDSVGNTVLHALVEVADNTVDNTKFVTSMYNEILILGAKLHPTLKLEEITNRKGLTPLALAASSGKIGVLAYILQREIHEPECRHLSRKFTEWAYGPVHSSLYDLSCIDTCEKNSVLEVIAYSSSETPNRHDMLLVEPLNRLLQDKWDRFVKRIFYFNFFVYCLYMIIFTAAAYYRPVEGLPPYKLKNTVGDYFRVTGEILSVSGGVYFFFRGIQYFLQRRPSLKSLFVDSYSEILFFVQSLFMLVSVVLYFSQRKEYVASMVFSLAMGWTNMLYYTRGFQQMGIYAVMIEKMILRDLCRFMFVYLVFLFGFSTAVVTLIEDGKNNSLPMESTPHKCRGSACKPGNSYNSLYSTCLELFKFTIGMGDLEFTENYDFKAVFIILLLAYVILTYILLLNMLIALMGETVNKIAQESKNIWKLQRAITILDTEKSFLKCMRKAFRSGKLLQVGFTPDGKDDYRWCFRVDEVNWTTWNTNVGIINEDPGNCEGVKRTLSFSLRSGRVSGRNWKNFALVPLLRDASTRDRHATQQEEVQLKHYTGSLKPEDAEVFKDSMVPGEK

| Binder | fractional dissociation 1 min after toxin removal (current 1 min after removal divided by steady-state current with toxin), whole-cell patch clamp at +120 mV, TRPV1 in HEK cells |
| --- | --- |
| bivalent K1 (K1K1) (protein) GDCAKEGEVCSWGKKCCDLDNFYCPMEFIPHCKKYKPYVPVTTDCAKEGEVCSWGKKCCDLDNFYCPMEFIPHCKKYK | 0.3 |
| bivalent K2 (K2K2) (protein) NCAKEGEVCGWGSKCCHGLDCPLAFIPYCEKYRPYVPVTTNCAKEGEVCGWGSKCCHGLDCPLAFIPYCEK | 0.96 |
